Columns and labels:
[1] = target: pyruvate kinase liver isoform (PKL) (UniProt P12928); experiment: native PAGE of oligomeric state; details: reference: non-phosphorylated PKL (WT); sites S113
[2] = target: pyruvate kinase liver isoform (PKL) (UniProt P12928); experiment: size-exclusion chromatography of oligomeric state; details: reference: non-phosphorylated PKL (WT); sites S113

pyruvate kinase liver isoform (PKL) (from UniProt P12928-2) PKL pS113 proteoform, sequence (P12928 whole entry, looked up, stated change not applied, canonical isoform): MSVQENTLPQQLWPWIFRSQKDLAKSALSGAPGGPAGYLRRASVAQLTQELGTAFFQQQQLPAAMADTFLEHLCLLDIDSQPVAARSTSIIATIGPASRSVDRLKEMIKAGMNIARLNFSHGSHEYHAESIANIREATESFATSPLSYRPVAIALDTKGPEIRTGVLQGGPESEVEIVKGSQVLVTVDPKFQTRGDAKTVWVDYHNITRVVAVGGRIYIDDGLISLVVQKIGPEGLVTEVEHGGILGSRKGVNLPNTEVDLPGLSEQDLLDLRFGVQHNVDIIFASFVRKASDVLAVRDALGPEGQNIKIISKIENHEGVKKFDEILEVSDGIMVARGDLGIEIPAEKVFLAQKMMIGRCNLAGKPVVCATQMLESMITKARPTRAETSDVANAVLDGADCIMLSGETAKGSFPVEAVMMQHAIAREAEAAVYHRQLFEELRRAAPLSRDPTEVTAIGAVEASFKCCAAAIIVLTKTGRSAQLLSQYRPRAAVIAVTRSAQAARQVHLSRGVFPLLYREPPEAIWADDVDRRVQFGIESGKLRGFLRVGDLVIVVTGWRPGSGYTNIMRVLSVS
pyruvate kinase liver isoform (PKL) (UniProt P12928), sequence (P12928 whole entry, looked up, canonical isoform): as the sequence (P12928 whole entry, looked up, stated change not applied, canonical isoform) above

pyruvate kinase liver isoform (PKL) (from UniProt P12928-2) PKL pS113 proteoform
binding against the reference [1]: same
binding against the reference [2]: same
